What all share (assay): two-hybrid library CCmax;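 further: natural log of median RNA to DNA barcode read ratio; higher means stronger binding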
One assay has as its target T1, P6-AA-12HAA-D.
T1 chain: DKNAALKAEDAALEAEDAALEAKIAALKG
The following applies: mean of both orientations.

The next assay concerns the target T2, P6-AA-12HAA-E.
T2 chain: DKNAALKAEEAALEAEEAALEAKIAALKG
The following applies: mean of both orientations.

The target in a further assay is T3, P6-AA-12HAA-H.
T3 chain: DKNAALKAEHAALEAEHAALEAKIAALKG
Particulars: mean of both orientations.

The target in the next assay is T4, P6-AA-12HAA-K.
T4 chain: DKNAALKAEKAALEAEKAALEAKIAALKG

In the next assay the target is T5, P6-AA-12HAA-L.
T5 chain: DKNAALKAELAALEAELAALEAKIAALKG
The following applies: mean of both orientations.

For another assay, the target named is T6, P6-AA-12HAA-R.
T6 chain: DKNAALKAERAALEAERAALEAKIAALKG
Particulars: mean of both orientations.

In the next assay the target is T7, P6-AA-12HAA-S.
T7 chain: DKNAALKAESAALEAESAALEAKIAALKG

The target of a further assay is T8, P6-AA-12HAA-T.
T8 chain: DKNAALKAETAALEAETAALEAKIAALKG

Another assay deals with T9, P6-AA-12HAA-V.
T9 chain: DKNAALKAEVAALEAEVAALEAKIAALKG
The following applies: mean of both orientations.

The next assay has as its target T10, P6-AA-12HAA-Y.
T10 chain: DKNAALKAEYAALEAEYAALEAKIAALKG

Another assay has as its target T11, P6-AA-1HAA-N.
T11 chain: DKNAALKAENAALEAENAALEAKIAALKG
The following applies: mean of both orientations.

Another assay addresses T12, P6-AA-1HAA-D.
T12 chain: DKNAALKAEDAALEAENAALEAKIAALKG
Particulars: mean of both orientations.

Another assay concerns the target T13, P6-AA-1HAA-E.
T13 chain: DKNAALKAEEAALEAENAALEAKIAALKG
The following applies: mean of both orientations.

For another assay, the target named is T14, P6-AA-1HAA-H.
T14 chain: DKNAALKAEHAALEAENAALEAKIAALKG

A further assay deals with T15, P6-AA-1HAA-K.
T15 chain: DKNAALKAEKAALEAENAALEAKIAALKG

The next assay deals with T16, P6-AA-1HAA-L.
T16 chain: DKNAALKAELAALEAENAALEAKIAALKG
The following applies: mean of both orientations.

A further assay concerns the target T17, P6-AA-1HAA-R.
T17 chain: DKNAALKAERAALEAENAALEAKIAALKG
Particulars: mean of both orientations.

For the next assay, the target named is T18, P6-AA-1HAA-S.
T18 chain: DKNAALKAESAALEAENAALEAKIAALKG
The following applies: mean of both orientations.

Another assay deals with T19, P6-AA-1HAA-T.
T19 chain: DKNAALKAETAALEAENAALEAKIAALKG
The following applies: mean of both orientations.

In another assay the target is T20, P6-AA-1HAA-V.
T20 chain: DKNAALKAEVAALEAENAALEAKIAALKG

Another assay deals with T21, P6-AA-1HAA-Y.
T21 chain: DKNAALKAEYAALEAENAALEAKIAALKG

From article PMC10397247 come the findings set out here.

Where two headings read alike, the source gives them in different places.

For DENAALEAKDAALKAKDAALKAEIAALEG [P5-AA-12HAA-D], the interaction score with P6-AA-12HAA-D was -1.47; with P6-AA-12HAA-E, -1.97; with P6-AA-12HAA-H it was -1.57; with P6-AA-12HAA-K (mean of both orientations), -1.61; with P6-AA-12HAA-L it was -1.56; with P6-AA-12HAA-R, -1.55. The interaction score was -1.67 in the assay with P6-AA-12HAA-S (mean of both orientations); -1.41 in the assay with P6-AA-12HAA-T (mean of both orientations); -1.32 with P6-AA-12HAA-V; -1.95 with P6-AA-12HAA-Y; -1.68 with P6-AA-1HAA-N.

DENAALEAKKAALKAKNAALKAEIAALEG [P5-AA-1HAA-K]: the interaction score in the assay with P6-AA-1HAA-D was -0.814; in the assay with P6-AA-1HAA-E, -0.501; with P6-AA-1HAA-H (mean of both orientations), -0.889; with P6-AA-1HAA-K (mean of both orientations), -0.653; with P6-AA-1HAA-L it was 1.84; in the assay with P6-AA-1HAA-N, 1.41. For the same molecule, the interaction score with P6-AA-1HAA-R is -1.3; with P6-AA-1HAA-S, 0.0853; in the assay with P6-AA-1HAA-T, 1.53; with P6-AA-1HAA-V (mean of both orientations) it was 2.05; with P6-AA-1HAA-Y (mean of both orientations) it was 0.0221.

Consider DENAALEAKYAALKAKNAALKAEIAALEG [P5-AA-1HAA-Y], for which the interaction score with P6-AA-1HAA-D is -0.899; with P6-AA-1HAA-E, -0.129; with P6-AA-1HAA-H (mean of both orientations), -0.1; in the assay with P6-AA-1HAA-K (mean of both orientations), 0.174; with P6-AA-1HAA-L, 1.72; with P6-AA-1HAA-N, 1.76. The interaction score in the assay with P6-AA-1HAA-R was -0.286; with P6-AA-1HAA-S, 1.55; with P6-AA-1HAA-T it was 1.28; in the assay with P6-AA-1HAA-V (mean of both orientations), 1.79; with P6-AA-1HAA-Y (mean of both orientations), 1.34.

Take DENAALEAKAAALKAKNAALKAEIAALEG [P5-AA-1HAA-A]: the interaction score with P6-AA-1HAA-D is -1.94; with P6-AA-1HAA-E, -0.184; with P6-AA-1HAA-H (mean of both orientations) it was -0.274; with P6-AA-1HAA-K (mean of both orientations), -0.453; with P6-AA-1HAA-L, 1.94; with P6-AA-1HAA-N, 0.981. For the same molecule, the interaction score with P6-AA-1HAA-R was -0.629; in the assay with P6-AA-1HAA-S, -0.02; in the assay with P6-AA-1HAA-T, 0.325; with P6-AA-1HAA-V it was 2.66; with P6-AA-1HAA-Y (mean of both orientations), 0.845.

Take DENAALEAKAAALKAKAAALKAEIAALEG [P5-AA-12HAA-A]: the interaction score in the assay with P6-AA-12HAA-D was -1.63; with P6-AA-12HAA-E, -1.81; with P6-AA-12HAA-H it was -1.86; with P6-AA-12HAA-K, -1.98; in the assay with P6-AA-12HAA-L, 1.96; with P6-AA-12HAA-R it was -2.54. Also, the interaction score with P6-AA-12HAA-S (mean of both orientations) was -1.71; with P6-AA-12HAA-T (mean of both orientations), -0.646; in the assay with P6-AA-12HAA-V it was 1.95; with P6-AA-12HAA-Y (mean of both orientations), -0.289; with P6-AA-1HAA-N, -1.39.

Consider DENAALEAKVAALKAKNAALKAEIAALEG [P5-AA-1HAA-V], for which the interaction score was determined as 0.818 in the assay with P6-AA-1HAA-D; 2.25 with P6-AA-1HAA-E; 1.79 with P6-AA-1HAA-H (mean of both orientations); 2.25 in the assay with P6-AA-1HAA-K (mean of both orientations); 2.32 in the assay with P6-AA-1HAA-L; 1.42 with P6-AA-1HAA-N. For the same molecule, the interaction score amounted to 1.76 with P6-AA-1HAA-R; 1.53 with P6-AA-1HAA-S; 1.93 in the assay with P6-AA-1HAA-T; 2.09 with P6-AA-1HAA-V (mean of both orientations); 2.48 with P6-AA-1HAA-Y (mean of both orientations).

With DENAALEAKYAALKAKYAALKAEIAALEG [P5-AA-12HAA-Y], the interaction score in the assay with P6-AA-12HAA-D is -1.3; with P6-AA-12HAA-E it was -1.65; in the assay with P6-AA-12HAA-H it was -1.67; in the assay with P6-AA-12HAA-K (mean of both orientations), -1.55; in the assay with P6-AA-12HAA-L, 2.06; in the assay with P6-AA-12HAA-R, -1.41. Moreover, the interaction score in the assay with P6-AA-12HAA-S (mean of both orientations) is -1.4; in the assay with P6-AA-12HAA-T, -0.448; with P6-AA-12HAA-V, 2.38; with P6-AA-12HAA-Y (mean of both orientations), 1.48; in the assay with P6-AA-1HAA-N it was -0.0879.

Consider DENAALEAKRAALKAKNAALKAEIAALEG [P5-AA-1HAA-R], for which the interaction score with P6-AA-1HAA-D is -0.756; with P6-AA-1HAA-E it was -0.332; with P6-AA-1HAA-H it was -0.333; in the assay with P6-AA-1HAA-K (mean of both orientations) it was -0.713; in the assay with P6-AA-1HAA-L it was 2.18; in the assay with P6-AA-1HAA-N, 1.85. The interaction score with P6-AA-1HAA-R was -1.22; with P6-AA-1HAA-S, 0.434; with P6-AA-1HAA-T, 1.54; in the assay with P6-AA-1HAA-V (mean of both orientations), 2.18; with P6-AA-1HAA-Y (mean of both orientations) it was 0.0514.

DENAALEAKHAALKAKHAALKAEIAALEG [P5-AA-12HAA-H]: the interaction score with P6-AA-12HAA-D was -1.53; in the assay with P6-AA-12HAA-E, -1.49; with P6-AA-12HAA-H, -1.49; with P6-AA-12HAA-K (mean of both orientations) it was -1.6; with P6-AA-12HAA-L it was 1.16; in the assay with P6-AA-12HAA-R it was -1.68. For the same molecule, the interaction score in the assay with P6-AA-12HAA-S is -1.37; with P6-AA-12HAA-T (mean of both orientations), -0.831; with P6-AA-12HAA-V, 1.55; in the assay with P6-AA-12HAA-Y (mean of both orientations), -0.856; in the assay with P6-AA-1HAA-N, 0.14.

Turning to DENAALEAKLAALKAKNAALKAEIAALEG [P5-AA-1HAA-L], the interaction score was -0.436 with P6-AA-1HAA-D; 1.45 with P6-AA-1HAA-E; 1.55 with P6-AA-1HAA-H (mean of both orientations); 1.78 in the assay with P6-AA-1HAA-K (mean of both orientations); 2.49 in the assay with P6-AA-1HAA-L; 1.66 in the assay with P6-AA-1HAA-N. Moreover, the interaction score with P6-AA-1HAA-R was 1.43; with P6-AA-1HAA-S, 1.85; with P6-AA-1HAA-T, 2.08; in the assay with P6-AA-1HAA-V (mean of both orientations), 2.31; in the assay with P6-AA-1HAA-Y (mean of both orientations), 1.93.

Turning to DENAALEAKDAALKAKNAALKAEIAALEG [P5-AA-1HAA-D], the interaction score with P6-AA-1HAA-D was -1.42; with P6-AA-1HAA-E, -1.72; with P6-AA-1HAA-H (mean of both orientations), -0.764; with P6-AA-1HAA-K (mean of both orientations), -1.15; in the assay with P6-AA-1HAA-L, -0.571; in the assay with P6-AA-1HAA-N, -1.12. Also, the interaction score is -1.35 with P6-AA-1HAA-R; -1.34 with P6-AA-1HAA-S; -1.02 with P6-AA-1HAA-T; 0.68 with P6-AA-1HAA-V (mean of both orientations); -0.724 with P6-AA-1HAA-Y.

DENAALEAKSAALKAKNAALKAEIAALEG [P5-AA-1HAA-S]: the interaction score with P6-AA-1HAA-D was -1.74; in the assay with P6-AA-1HAA-E it was -0.781; in the assay with P6-AA-1HAA-H (mean of both orientations) it was 0.0581; with P6-AA-1HAA-K, -1.01; in the assay with P6-AA-1HAA-L, 1.67; in the assay with P6-AA-1HAA-N, 0.913. In addition, the interaction score with P6-AA-1HAA-R was -0.821; in the assay with P6-AA-1HAA-S, -0.742; with P6-AA-1HAA-T, 0.235; with P6-AA-1HAA-V (mean of both orientations), 2.16; with P6-AA-1HAA-Y (mean of both orientations) it was 0.832.
